# Measured values: patent US9750803B2, “Lipid vesicle compositions and methods of use” (priority 2010, dated 2017)
# B1: ovalbumin (protein, UniProt P01012 2-386, looked up)
# Ovalbumin: GSIGAASMEFCFDVFKELKVHHANENIFYCPIAIMSALAMVYLGAKDSTRTQINKVVRFDKLPGFGDSIEAQCGTSVNVHSSLRDILNQITKPNDVYSFSLASRLYAEERYPILPEYLQCVKELYRGGLEPINFQTAADQARELINSWVESQTNGIIRNVLQPSSVDSQTAMVLVNAIVFKGLWEKAFKDEDTQAMPFRVTEQESKPVQMMYQIGLFRVASMASEKMKILELPFASGTMSMLVLLPDEVSGLEQLESIINFEKLTEWTSSNVMEERKIKVYLPRMKMEEKYNLTSVLMAMGITDVFSSSANLSGISSAESLKISQAVHAAHAEINEAGREVVGSAEAGVDAASVSEEFRADHPFLFCIKHIATNAVLFFGRCVSP
# B2: soluble VMP: recombinant vivax malaria protein (VMP001, SEQ ID NO:1) given as soluble protein with MPLA, Montanide or alum (protein)
# chain: THCGHNVDLSKAINLNGVNFNNVDASSLGAAHVGQSASRGRGLGENPDDEEGDAKKKKDGKKAEPKNPRENKLKQPGDRADGQAAGNGAGGQPAGDRAAGQPAGDRAAGQPAGDGAAGQPAGDRADGQPAGDRADGQPAGDRAAGQAAGNGAGGQAAANGAGNQPGGGNAANKKAEDAGGNAGGNAGGQGQNNEGANAPNEKSVKEYLDKVRATVGTEWTPCSVTCGVGVRVRRRVNAANKKPEDLTLNDLETDVCT
# modifications: VMP Amino Acid Sequence
# Key:
# [1] = tested on: OVA-specific naïve OT-I CD8+ T-cells; assay: CFSE dilution proliferation assay of OT-I CD8+ T-cells co-cultured with pulsed splenic DCs; assay type: cell-based; conditions: DCs pulsed with 0.7 μg/mL OVA equivalent, 0.1 μg/mL MPLA, day 3
# Description: FIGS. 7A-7C. In vitro stimulation of immune responses by ICMVs supplemented with the TLR agonist MPLA. (A) Flow cytometry analysis of expression of the cell surface costimulatory markers CD40, CD80, and CD86 on splenic dendritic cells (DCs) after 18 hr incubation with 0.7 μg/mL soluble OVA, equivalent doses of OVA loaded in ICMVs, or ICMVs loaded with an irrelevant protein (vivax malaria protein, VMP), in the presence or absence of 0.1 μg/mL MPLA. (B) Splenic DCs were incubated for 18 hr with 10 μg/mL […] peptide (OVA257-264), 5.0 μg/mL soluble OVA, equivalent doses of OVA loaded in ICMVs, or VMP-loaded ICMVs in the presence or absence of 0.05 μg/mL MPLA, and the extent of cross-presentation of OVA was assessed by flow cytometry analysis of cells stained with the 25-D1.16 mAb that recognizes […] complexed with H-2K^b. (C) 5-(6)-carboxyfluorescein diacetate succinimidyl diester (CFSE)-labeled OVA-specific naïve OT-I CD8^+ T-cells were co-cultured with syngeneic splenic DCs pulsed with soluble 0.7 μg/mL OVA mixed with 0.1 μg/mL MPLA, or equivalent doses of OVA-loaded ICMVs mixed with MPLA. Empty ICMVs without antigen or ICMVs loaded with the irrelevant antigen VMP were included as negative controls. Proliferation of CD8^+ T-cells was assessed on day 3 by flow cytometry analysis of the dilution of CFSE in the OT-I CD8^+ T-cells; shown are histograms of CFSE fluorescence. […]
# C57Bl/6 mice [2] = assay: Example 2 vaccination: tetramer+ OVA-specific CD8+ T-cells in PBMCs; assay type: in vivo, mouse; conditions: mixed with 0.1 μg MPLA
# Description: (§1) Vaccination study with ICMVs. Groups of C57Bl/6 mice (Jackson Laboratories) were immunized s.c. in the tail base with indicated doses of OVA (with or without TLR agonist MPLA). Frequencies of OVA-specific CD8^+ T-cells and their phenotypes elicited by immunization were determined by flow cytometry analysis of PBMCs at selected time points following staining with DAPI (to discriminate live/dead cells), anti-CD8 alpha, anti-CD44, anti-CD62L, and […]/H-2K^b peptide-MHC tetramers (Becton Dickinson). To assess functionality of primed CD8^+ T-cells, PBMCs were stimulated ex vivo with 1 μM OVA-peptide […] for 6 hrs with GolgiPlug (Becton Dickinson), fixed, permeabilized, stained with anti-IFN-gamma and CD8 alpha, and analyzed by flow cytometry. Anti-OVA IgG titers, defined as the dilution of sera at which 450 nm OD reading is 0.5, were determined by ELISA analysis of sera from immunized mice. Animals were cared for following NIH, state, and local guidelines.
# C57Bl/6 mice [3] = assay: Example 2 vaccination: anti-OVA IgG serum titers by ELISA; assay type: in vivo, mouse; conditions: low dose of MPLA (0.1 μg), two boosts, day 56
# Description: as §1
# CD45.1+ recipient mice = assay: Expansion of adoptively transferred OT-II CD4+ T-cells after immunization; assay type: in vivo, mouse; conditions: eight days post priming
# Description: (§2) Germinal center and follicular helper T cell analysis. Mice were immunized s.c. with 5 μg of MPLA and 100 μg of OVA-alexa fluor 555 in either soluble or ICMV formulations (lipids labeled with DiD). At serial time-points, dLNs were isolated, flash-frozen, cryo-sectioned, and examined by confocal microscopy. To identify cell types associated with particles, dLNs were isolated on d 1 or 4, stained with anti-CD11b, anti-CD11c, anti-CD169, anti-CD205, and F4/80, and analyzed by flow cytometry. To assess GC formation, dLNs were isolated on d14 from mice immunized with 1 μg of unlabeled soluble VMP or VMP-ICMVs (both with 0.1 μg MPLA), stained with anti-B220, anti-IgD, anti-GL-7 (BD), peanut agglutinin (Vectorlabs, Burlingame, Calif.), and analyzed by flow cytometry or confocal microscopy. To monitor antigen-specific CD4+ T-cells, […] OVA-specific CD4+ T cells from OT-II (CD45.2+) mice were adoptively transferred i.v. into recipient congenic CD45.1+ mice. After 1 d, recipient mice were immunized s.c. with 10 μg of OVA in either soluble or ICMV formulations, both with 1 μg MPLA. A second comparison group of mice were immunized s.c. with 100 μg OVA in alum. The frequencies of OVA-specific CD4+ T cells and their phenotypes in spleens and dLNs were determined by flow cytometry analysis, following staining with DAPI, anti-CD4, anti-CD45.2, anti-PD-1, and anti-CXCR5 (BD).
# mice [4] = assay: Antigen delivery to draining lymph nodes (histology at serial time-points); assay type: in vivo, mouse; conditions: s.c., with MPLA
# Description: as §2
# C57Bl/6 mice [5] = assay: Example 3 immunization: anti-VMP IgG serum titers and isotypes by ELISA; assay type: in vivo, mouse
# Description: (§3) Immunizations. Animals were cared for following NIH, state, and local guidelines. Groups of 6-10-wk old female C57Bl/6 mice (Jackson Laboratories, Bar Harbor, Me.) were immunized s.c. at the tail base with VMP-ICMVs and indicated doses of MPLA (Sigma-Aldrich, St. Louis, Mo.) in 100 μL PBS on day 0 and 21. Control immunizations with soluble VMP were performed using MPLA, Montanide ISA-50 V2 (Seppic, N.J.), or alum (Imject alum, Pierce, Rockford, Ill.) at an adjuvant:protein solution vol. ratio of 1:1 following the manufacturer's instructions.
# (§4) Characterization of anti-VMP humoral responses. Sera were analyzed for IgG, IgG1, and IgG2c antibodies by ELISA using VMP-coated plates (Bell et al. 2009 Vaccine 27:1448-1453). Anti-VMP IgG titers were defined as the lowest serum dilution at which the ELISA OD reading was ≧0.5. Avidity measurements were performed by incubating plates with 6 M urea for 10 min at 20° C. to remove weakly bound IgG prior to addition of detection Ab. The avidity index was defined as (IgG titer with 6 M urea/IgG titer without urea)×100. […] Splenocytes isolated 7 d after boost vaccinations were restimulated ex vivo with either PBS or VMP-ICMV at 2 μg/ml, and on d2, cytokine levels in the culture supernatants were measured by flow cytometry (Cytometric Bead Array, BD).
# C57Bl/6 mice [6] = assay: Epitope analysis of anti-VMP sera on VMP peptide fragments; assay type: in vivo, mouse; conditions: d 90
# Description: as §3, §4
# mice [7] = assay: Germinal center analysis in draining lymph nodes; assay type: in vivo, mouse; conditions: 100 ng VMP, with MPLA, histological analysis
# Description: as §2, with “To assess GC formation, dLNs were isolated on d14 from mice immunized with 1 μg of unlabeled soluble VMP or VMP-ICMVs (both with 0.1 μg MPLA), stained with anti-B220, anti-IgD, anti-GL-7 (BD), peanut agglutinin (Vectorlabs, Burlingame, Calif.), and analyzed by flow cytometry or confocal microscopy.” left out
molecule,measurement,setting,value
ovalbumin [soluble OVA],Proliferation of OT-I CD8+ T-cells,[1],weak T-cell responses
same,Antigen-specific T-cell expansion by tetramer staining,C57Bl/6 mice [2],barely detectable
same,Anti-OVA serum IgG response,C57Bl/6 mice [3],barely detectable antibody response
same,"Expansion of OT-II CD4+ T-cells in spleens, fold compared to PBS",CD45.1+ recipient mice,~6.3 fold
B1,Time at which antigen was detected in dLNs,mice [4],≤ 4 h
B2,Fold more protein required to elicit a response than VMP-ICMVs,C57Bl/6 mice [5]; mixed with MPLA or adjuvanted with Montanide or alum,at least 10 fold
same,Antigen-specific IgG isotype response,"C57Bl/6 mice [5]; with MPLA, d 90",only Th2-skewed IgG1 antibodies
same,Recognition of the AGDR motif by sera,C57Bl/6 mice [6],did not recognize
same,GCs per dLN,mice [7],complete absence
